Measured values reported in paper PMC5959768 (Cell, 2018).

Target: Gβ1/Gγ2(C68S) complex (human, UniProt P62873 1-340; P59768 1-71, C68S)
Experiment: SEC

Gβ1/Gγ2(C68S) complex, sequence (P62873 whole entry, chain 1 of 2): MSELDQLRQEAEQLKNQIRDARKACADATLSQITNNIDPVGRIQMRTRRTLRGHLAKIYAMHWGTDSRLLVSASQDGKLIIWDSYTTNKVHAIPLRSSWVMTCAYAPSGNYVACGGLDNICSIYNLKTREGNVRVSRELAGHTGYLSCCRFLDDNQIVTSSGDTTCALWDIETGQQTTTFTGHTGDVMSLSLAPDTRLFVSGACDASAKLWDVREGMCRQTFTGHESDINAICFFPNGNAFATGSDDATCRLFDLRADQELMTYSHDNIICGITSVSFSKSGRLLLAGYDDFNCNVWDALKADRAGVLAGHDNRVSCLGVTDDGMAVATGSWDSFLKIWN
Gβ1/Gγ2(C68S) complex, sequence (P59768 whole entry C68S, chain 2 of 2): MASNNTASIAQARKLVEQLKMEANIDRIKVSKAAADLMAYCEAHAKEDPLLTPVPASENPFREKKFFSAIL

binding result: binds
B1: Wild type human Gαs (residues 7-380 of the short isoform) (natural protein, UniProt P63092-2 7-380, looked up)
chain: SKTEDQRNEEKAQREANKKIEKQLQKDKQVYRATHRLLLLGAGESGKSTIVKQMRILHVNGFNGDSEKATKVQDIKNNLKEAIETIVAAMSNLVPPVELANPENQFRVDYILSVMNVPDFDFPPEFYEHAKALWEDEGVRACYERSNEYQLIDCAQYFLDKIDVIKQADYVPSDQDLLRCRVLTSGIFETKFQVDKVNFHMFDVGGQRDERRKWIQCFNDVTAIIFVVASSSYNMVIREDNQTNRLQEALNLFKSIWNNRWLRTISVILFLNKQDLLAEKVLAGKSKIEDYFPEFARYTTPEDATPEPGEDPRVTRAKYFIRDEFLRISTASGDGRHYCYPHFTCAVDTENIRRVFNDCRDIIQRMHLRQYELL
